Results from PMC6162318.

Target: ELIC-α1GABAAR chimera (Erwinia chrysanthemi | human) (UniProt P0C7B7)
Assay: crystal structure

## ELIC-α1GABAAR chimera (from UniProt P0C7B7 1-199) (receptor)
  stoichiometry N: 5
